The record followed here is publication PMC2874008, “Agrin Binds BMP2, BMP4 and TGFβ1” (PLoS ONE, 2010).

The labels stand for the following.
B1: Mature human BMP4 (ligand, UniProt P12644 293-408, looked up)
chain: SPKHHSQRARKKNKNCRRHSLYVDFSDVGWNDWIVAPPGYQAFYCHGDCPFPLADHLNSTNHAIVQTLVNSVNSSIPKACCVPTELSAISMLYLDEYDKVVLKNYQEMVVEGCGCR
notes: bone morphogenetic protein 4, human, mature growth factor; source: bought: R&D Systems
B2: N-terminal part of rat agrin (Agrin-Nterm) (domain or fragment)
chain: RSDVCRGMLCGFGAVCEPSVEDPGRASCVCKKNACPATVAPVCGSDASTYSNECELQRAQCNQQRRIRLLRQGPCGSRDPCANVTCSFGSTCVPSADGQTASCLCPTTCFGAPDGTVCGSDGVDYPSECQLLSHACASQEHIFKKFNGPCDPCQGSMSDLNHICRVNPRTRHPEMLLRPENCPAQHTPICGDDGVTYENDCVMSRIGATRGLLLQKVRSGQCQTRDQCPETCQFNSVCLSRRGRPHCSCDRVTCDGSYRPVCAQDGHTYNNDCWRQQAECRQQRAIPPKHQGPCDQTPSPCHGVQCAFGAVCTVKNGKAECECQRVCSGIYDPVCGSDGVTYGSVCELESMACTLGREIQVARRGPCDPCGQCRFGSLCEVETGRCVCPSECVESAQPVCGSDGHTYASECELHVHACTHQISLYVASAGHCQTCGEKVCTFGAVCSAGQCVCPRCEHPPPGPVCGSDGVTYLSACELREAACQQQVQIEEAHAGPCEPAECGSGGSGSGEDDECEQELCRQRGGIWDEDSEDGPCVCDFSCQSVPRSPVCGSDGVTYGTECDLKKARCESQQELYVAAQGACRGPTLAPLLPVAFPHCAQTPYGCCQDNFTAAQGVGLAGCPSTCHCNPHGSYSGTCDPATGQCSCRPGVGGLRCDRCEPGFWNFRGIVTDGHSGCTPCSCDPRGAVRDDCEQMTGLCSCRPGVAGPKCGQCPDGQVLGHLGCEADPMTPVTCVEIHCEFGASCVEKAGFAQCICPTLTCPEANSTKVCGSDGVTYGNECQLKAIACRQRLDISTQSLGPCQ
modifications: glycosylation at multiple sites (proteoglycan smear on SDS-PAGE)
notes: not agrin residues; rat agrin, residues Asp65-Gln865, amplified from rat agrin cDNA NM_175754.1; numbers count on: the protein encoded by NM_175754.1; Calculated molecular mass of the recombinant protein 88,054 Da
B3: Mature human BMP2 (ligand, UniProt P12643 283-396, looked up)
chain: QAKHKQRKRLKSSCKRHPLYVDFSDVGWNDWIVAPPGYHAFYCHGECPFPLADHLNSTNHAIVQTLVNSVNSKIPKACCVPTELSAISMLYLDENEKVVLKNYQDMVVEGCGCR
notes: bone morphogenetic protein 2, human, mature growth factor; source: bought: R&D Systems

Assay [1] concerns the target B2. Put plainly: SPR; BIAcore X; BMP2, BMP4 or TGFβ1 immobilised on CM5 chips by amine coupling, Agrin-Nterm injected at 20 µl/min; 20 mM HEPES, 150 mM NaCl, 5 mM EDTA, 0.005% Tween 20, pH 7.5; global fit, 1:1 Langmuir model. As to conditions: both partners purified.
Assay [2] has as its target Mature human TGFβ1 (human). Put plainly: SPR; solution-competition: constant concentration of growth factor (40 nM BMP2, 40 nM BMP4 or 4 nM TGFβ1) preincubated 30 min at room temperature with increasing Agrin-Nterm, injected over immobilised ECD of the receptor (BMPR1A or TGF-βsRII) on CM5; 20 mM HEPES, 150 mM NaCl, 5 mM EDTA, 0.005% Tween 20, pH 7.5; 50% decrease in kobs by the method of Nieba et al. For orientation: SPR reads the build-up and loss of mass on a sensor chip optically.

The assay “Mature human BMP4” has as its target B1. The assay is described as above. As to conditions: both partners purified.
The assay “Mature human BMP2” addresses B3. Described as above. As to conditions: both partners purified.
The target of assay [3] is Mature human TGFβ1 (human). In words: SPR; BIAcore X; BMP2, BMP4 or TGFβ1 immobilised on CM5 chips by amine coupling, Agrin-Nterm injected at 20 µl/min; 20 mM HEPES, 150 mM NaCl, 5 mM EDTA, 0.005% Tween 20, pH 7.5; global fit, 1:1 Langmuir model.
Chain of Mature human TGFβ1 (human) (P01137 279-390): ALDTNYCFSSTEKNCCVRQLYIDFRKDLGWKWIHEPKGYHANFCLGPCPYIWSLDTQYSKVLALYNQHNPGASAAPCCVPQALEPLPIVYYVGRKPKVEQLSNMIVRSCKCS

For B1, in assay [1], the affinity, expressed as Kd, was 257 nM; the koff amounted to 0.000412 s⁻¹; the kon was 1610 M⁻¹ s⁻¹.
In assay [2], B2 registered an IC50 of 2000 nM. In the assay with Mature human BMP4, this molecule registered an IC50 of 345 nM. Besides, the IC50 in the assay with Mature human BMP2 was 12 nM. For the same molecule, in assay [3], the equilibrium dissociation constant (Kd) turned out to be 51.5 nM, the koff worked out at 0.000172 s⁻¹ and the kon turned out to be 3340 M⁻¹ s⁻¹.
In assay [1], B3 returned a Kd of 262 nM, a koff of 0.000286 s⁻¹ and a kon of 1090 M⁻¹ s⁻¹.

A word on the Kd: it is the constant that tells how readily two partners part at equilibrium. A high value points to a looser complex. What is called koff is the first-order rate constant of dissociation. High values mean fast dissociation, low ones slow dissociation. As usually defined, the kon is the rate constant with which the complex forms. The low end stands for slower complex formation, the high end for faster complex formation. As usually defined, the IC50 is the concentration that gives 50% inhibition. A high value points to weaker potency in that assay.
